Assay results taken from patent US20080261863A1 (Bayer, published 2008).
Ends that are not written are not given here.

T1: VPAC1 receptor
T1 sequence (P32241 whole entry, species assumed, looked up): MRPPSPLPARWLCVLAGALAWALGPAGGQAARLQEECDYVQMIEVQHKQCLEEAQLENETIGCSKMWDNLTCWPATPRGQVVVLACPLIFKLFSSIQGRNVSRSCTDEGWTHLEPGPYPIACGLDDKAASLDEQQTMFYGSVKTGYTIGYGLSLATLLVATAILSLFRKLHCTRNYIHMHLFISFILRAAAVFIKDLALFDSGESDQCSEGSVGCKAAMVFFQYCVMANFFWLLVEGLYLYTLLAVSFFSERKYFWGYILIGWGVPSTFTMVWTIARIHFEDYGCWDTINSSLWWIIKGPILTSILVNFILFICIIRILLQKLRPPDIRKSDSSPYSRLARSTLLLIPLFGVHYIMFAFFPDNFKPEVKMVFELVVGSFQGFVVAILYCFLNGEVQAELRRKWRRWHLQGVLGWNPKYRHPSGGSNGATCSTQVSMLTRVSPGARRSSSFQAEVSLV

B1: P412 (P12+43 kD PEG) (peptide)
peptide: HSDAVFTDQYTRLRKQVAAKKYLQSIKQKRYC
modifications: branched 43 kD PEG attached to the C-terminal cysteine via maleimide (thioether) linkage
B2: P212 (P12+22 kD PEG) (peptide)
peptide: B1 peptide
modifications: linear 22 kD PEG attached to the C-terminal cysteine via maleimide (thioether) linkage

What follows are binders tested against T1, VPAC1 receptor (assay: cell-based or functional assay).

EC50 (nM), cAMP assay, VPAC1 agonist activity [nM]	Binder
232	HSDAVFTDQYTRLRKQVAAKKYLQSIKQKRY (ends and bridges not checked) [P5]
> 1000	B1
> 1000	B2
> 1000	HSDAVFTDQYTRLRKQVAAKKYLQSIKQKRYC (ends and bridges not checked) [P12]
